From paper PMC3187746

Key:
[1] = target: pUL77 (Human cytomegalovirus (cosmid pCM1075; strain not stated)) (UniProt P16726); assay: pull-down; conditions: scale: binding efficiency
[2] = target: purified recombinant pUL77 (rpUL77) (human cytomegalovirus (HCMV)) (UniProt P16726); assay: cross-linking
[3] = target: in vitro translated, radiolabeled pUL77 (wild type, from pcDNA-UL77) (human cytomegalovirus (HCMV)) (UniProt P16726); assay: cross-linking; in vitro translated, radiolabeled protein in PBS, 0.01% glutaraldehyde, 8% SDS-PAGE, autoradiography

Substance | binding signal [1] | other results
bio-500 bp | 2.2 | 
purified recombinant pUL77 (rpUL77) (from UniProt P16726 1-642) (natural protein) |  | stoichiometry N [2]: 2
bio-250 bp | 0.5 | 
bio-1000 bp | 4.9 | 
in vitro translated, radiolabeled pUL77 (wild type, from pcDNA-UL77) (from UniProt P16726 1-642) (natural protein) |  | stoichiometry N [3]: 2
